# Reference: the DeepSol protein solubility set
# Assay: soluble on expression in E. coli; label from the status in PepcDB or PDB records
row,Sequence,soluble on expression in E. coli
1,MTLSFTARWRDELPATYTALLPTPLKNARLIWYNDELAQQLAIPASLFDATNGAGVWGGETLLPGMSPVAQVYSGHQFGVWAGQLGDGRGILLGEQLLADGSTLDWHLKGAGLTPYSRMGDGRAVLRSTIRESLASEAMHYLGIPTTRALSIVTSDTPVQRETQETGAMLMRLAQSHMRFGHFEHFYYRREPEKVQQLADFAIRHYWPQWQDVAEKYALWFEEVAARTGRLIAEWQTVGFAHGVMNTDNMSILGLTIDYGPFGFLDDYDPGFIGNHSDHQGRYRFDNQPSVALWNLQRLAQTLTPFIEIDALNRALDRYQDALLTHYGQRMRQKLGFFTEQKDDNVLLNELFSLMAREGSDYTRTFRMLSHTEQQSASSPLRDTFIDRAAFDAWFDRYRARLRTEAVDDALRQQQMQRVNPAIVLRNWLAQRAIDAAEQGDMAELHRLHEVLRQPFTDRDDDYASRPPEWGKRLEVSCSSMAGDPLEHHHHHH,not soluble
2,VDLGGVRRRISLMARQHGPTAQRHVASPMTVDIARLGRRPGAMFELHDTVHSPARIGLELIAIDQGALLDLDLRVESVSEGVLVTGTVAAPTVGECARCLSPVRGRVQVALTELFAYPDSATDETTEEDEVGRVVDETIDLEQPIIDAVGLELPFSPVCRPDCPGLCPQCGVPLASEPGHRHEQIDPRWAKLVEMLGPESDTLRGER,not soluble
3,MDDDILGLEDVTASEAFKIIYELSKASKIDADRSDAAKAQFTLLHSTLLQALQAERDLLDQAKALKRQKEEQEAAITGAGGVPGADDIDQLREDVEAALGEAALAQERQQLLQLEVTDLQRQRNDLGARMEELAAEHAAALQPVIAQARGEAAALVDELDEERRRVEAAHGELEDMKSKLAAVQEEIEAMGETKAVERANLVKVDPLPDKARRQSEAVAAILKSVQGQLESMNARYGEHDTQYKTAAEREQQLTEEHTKMLTALERGRVQVESKARHADDVRKDVELASIEADKILADQVELDLRVKNLALELKAESDHLNRRQREKELMLRQYRVADQQLKDARDMLPNLKFQVEQMHRDVNTLEARRRAQSRELSDVKRELDIQMAAFLHEEADGKEKVALFQLTYKEVAALEAELAALKREEAERDTILRDLGSQRDRVALAIAQKLSKVKDVQMTSRIKEVELAELKKIRKEVGRRIRDFEKLYDLVKNQRNKFVNLIQAASQSTTEMKDKLKVLQNELDILQNEVGIKDKLLQQQHTQHAANIAERDQLRVELGRLGMVFRDKQAVVDEQIAEVDKLNAIINGCEKEMLRLKKQYELVIEARNYTGIMLIDRNDELCVLYEKANILDEVIKSGQLELMRREDEARLLRLEVGELERSIGVTRRLVPSVPLLDNDVAALQKALFEARREAEALSLALENPSNQGRWRLLEGKIPDREELSAKIQALEERLNDKKEQLLEKELILEEITSLSDKLRVQAAEGRADTLELAQRVNEYQSKLRAVTRKIMATVSELSMYQASALKLGAEKEELEGAVSLASQRLEAGEPPTDDAEREWYRLERERHTVDAMAEERRAVAAALDARVAEVQSTAEPRPNAYIPEQLGIPKPYGSFAPFKPQEAGSTMRHIRKPSPKEVVI,not soluble
4,MSLKQVPDVNKIKFDPETKRIVRKDVPLMMNSFDKKAVEEAIRISERHGWETCVATMGPPQAVEVINEALRMGIERGYLITDPSLANSDTLITSRVLAAFALRYGPDLVLMGKYSLDGETSQVPAEVSALMGWPYVPSVSKIMISDHLELEQELENGIYTCSAPLPCVLSLSEKINRARAIKPDTPQMYDRIVQIDTKWLGLDLDGGRDSPTAVIGTEQVNSNRSPVFIDPGADMYRQIMEIIRVSRKNDRMKTIDLNYAEFRGEAWAIAIDSENASLEIASKVADIASENSFYVRVIGNVEFSDPRSVPAHHVDIISGTDAVGLSYYIVDEIKKHSPEFLIFPSTVTGRQISSLVAARFGLGLTADCVDLSYGDRGLLQYKPAFGGGVIAEIISRKKPAMATARPGMFRKVKVNIEPSISHMSLDPAGRIRYGQFIPVPQEFKPLEGSRLILGIGRGLKRKEDLPKIMELASMLGASVGGSRPIVDMNYIPRQQQIGLTGSAVSPDVYIALGISGQDNHIVGLRYARKIIAVNTDRNAPIFRYSDYGIIMDLMQFVEGFLHFLNAEGHHHHHH,not soluble
5,HWPPLGIVRDLWTESGIGPERVAVMERVAGPKCCLLGRQNDRPSGAAFVGLAGPFAMLHALEVTPALRRLGSAQAMIRRGACWAEAAGAHWFSLVVTTANAPARALYEALGMEEVGHYHYRLK,not soluble
6,MVDSYDDSLDGEKSKTQVKRELHALVDLGERLTTLKADVLAKLPLTDALRKALAEAPKHTANIARKRHILFIGKLMRDQDQEAILVLLDQLDASTRQYNERFHNLERWRDRLIAGDDADLEKFVIEYPDADRQQLRSLIRQAQHEVARNKPPATSRKIFKYIRELDELQRGLR,not soluble
7,MGHHHHHHSHMDWTLAMAQESGVWSEAGQLALHSYLEGLHTLASCAPAPSLSAPRLKSCIQCVESQLLVVIMSVCMLVCQLRNVCVCVHAHACMYLFPVPSGSGCHFRLSALSPATSVPQPEREMRCSWTPHCIWAAGPELV,not soluble
8,MNSGRPETMENLPALYTIFQGEVAMVTDYGAFIKIPGCRKQGLVHRTHMSSCRVDKPSEIVDVGDKVWVKLIGREMKNDRIKVSLSMKVVNQGTGKDLDPNNVIIE,soluble
9,MEYWHYVETTSSGQPLLREGEKDIFIDQSVGLYHGKSKILQRQRGRIFLTSQRIIYIDDAKPTQNSLGLELDDLAYVNYSSGFLTRSPRLILFFKDPSSKDELGKSAETASADVVSTWVCPICMVSNETQGEFTKDTLPTPICINCGVPADYELTKSSINCSNAIDPNANPQNQFGVNSENICPACTFANHPQIGNCEICGHRLPNASKVRSKLNRLNFHDSRVHIELEKNSLARNKSSHSALSSSSSTGSSTEFVQLSFRKSDGVLFSQATERALENILTEKNKHIFNQNVVSVNGVDMRKGASSHEYNNEVPFIETKLSRIGISSLEKSRENQLLNNDILFNNALTDLNKLMSLATSIERLYKNSNITMKTKTLNLQDESTVNEPKTRRPLLILDREKFLNKELFLDEIAREIYEFTLSEFKDLNSDTNYMIITLVDLYAMYNKSMRIGTGLISPMEMREACERFEHLGLNELKLVKVNKRILCVTSEKFDVVKEKLVDLIGDNPGSDLLRLTQILSSNNSKSNWTLGILMEVLQNCVDEGDLLIDKQLSGIYYYKNSYWPSHI,soluble
10,MSLKQIVGHKLLNDVIRPLKKGDGRSAWNVLIVDTLAMRMLSSCCKMHNIMEEGITIVEDLNKRREPLPTLEAIYLIAPTAESIDKLIQDYCARNLYKCAHVFFTEACSDQLFSTLSKSAAARFIKTLKEINIAFTPYESQVFNLDSPDTFFLYYNAQKQGGLTSNLERIAEQIATVCATLGEYPSLRYRADFERNVELGHLVEQKLDAYKADDPSMGEGADKARSQLIIIDRGYDAITPLLHELTLQAMCYDLLGIENDVYKYETGGSDENLEKEVLLDENDDLWVEMRHKHIAVVSQEVTKNLKKFSESKGNKGTMDSKSIKDLSMLIKRMPQHKKELNKFSTHISLAEECMKQYQQGVDKLCKVEQDLSTGIDAEGERVRDAMKLMVPLLIDPAVRCEDRLRLILLYILSKNGITDENLNKLLQHANISMADKETITNAAYLGLNIVTDTGRKKTWTPTKKERPHEQVYQSSRWVPVIKDIIEDAIDERLDTKHFPFLAGRQVNQGYRAPASARYGQWHKERGQQSNYRSGPRLIIYIIGGVTFSEMRACYEVTAARKPWEVVIGSDRIITPDKFLTNLRDLNKPRDI,not soluble
11,GIDPFTMLHIEFITDLGAKVTVDVESADKLLDVQRQYGRLGWTSGEVPVGGYQFPLENEPDFDWSLIGARKWTNPEGEEMILHRGHAYRRRELEAVDSRKMKLPAAVKYSRGAKNTDPEHVREKADGEFEYVTLAIFRGGKRQERYAVPGSNRPQAGAPARSAATRAQGARPGAVAVQDEETPF,soluble
12,MRKILVVGAGQSGLQLALGLQSHGYEVTLMSNRTADEIRTGRVMSTQCMFHTALQHERDLQLNFWESQAPKIEGLGVSVAAPGSFDPGPSQRAIDWLGHLDGFAQSVDQRVKMAGWMETFAQRGGQLVIHGAAVGDLDYFSRAYDLVLVSAGKGELVQMFGRDAERSPYSEPQRALAVAYVHGMGPRPEHPETEAVRCNLVPGVGEMFIMPTFTTSGRADILFWEGIPGGPLDAFKDVKDPAEHLSLTLELMEKFLPWEYARATKVELTDAGGTLAGRYAPTVRNPVGRLPGGGAVLGVADVVVANDPITGQGSNSASKCAASYLASIIEHGDQEFDETWMRQTFDRYWETAQHVTKWTNTMLAPPPEHILNLFGAATQLQPIADRFANGFNDPSDFENFFYDPAKTEGYLAEVSGAAGALEHHHHHH,not soluble
13,MGSDKIHHHHHHMVLVVAGFDPSGGAGIIQDVKVLSALGVKTHAVISALTVQNENRVFSVNFRDWEEMRKEIEVLTPPRVIKVGLSAPETVKRLREMFPDSAIVWNVVLESSSGFGFQDPEEVKKFVEYADYVILNSEEAKKLGEYNNFIVTGGHEKGNTVKVKYRDFVFEIPRVPGEFHGTGCAFSSAVSGFLAMSYPVEEAIRSAMELLKKILERSSGVVETEKLLRDWYRYDTLNTLDEILPEFLEIGHLTVPEVGQNVSYALPWAKNEFEVGKFPGRIRLKEGKAVAVSCASFKDRSHTARMAVTMMRYHPHMRCVVNVRYEREYVERAKKRGLKVFHYDRSKEPKEVQEKEGQSMVWMIEQAIAELKSPPDVIYDEGWWGKEAMIRVFGRNPKEVLEKIKLMVRE,not soluble
14,SETQKTQAENPPKPATSSCRKKTKDDANFLEDVKDHIDDFINASMDDHKNCFNKTIKKMFGLSKAVADKQQSEAKGGVESYLPLQTTVSD,soluble
15,MSVVSPDPAPVPHDPQRRALLRWLVGGGALAGGLGVSAVAQGYRFGVTHEQWNLVGLTRPVRLALLTDLHYGLYIGAGSVRRWVDATLAECPDLILLGGDLVDSHFDAAARPQQTAALLAELGRLRAPLGVYAVWGNHDYGSFGRSISQSPEASRADWAARRDALRAGLAGQGVTVLLNEGRSLRDDLWLGGVDDLRMGEADSVAALRGSGTRATVLLAHNPDVLLRLRSAPGLVLSGHTHGGQVRLPLLGALKVPADPRFTMGWVRGPQGIPAYVSRGLGMSGLPVRNLCEPEITLLTLLPPGALEHHHHHH,not soluble
16,MGSDKIHHHHHHMPTLIERIHQVELGNLTQLDQLCHQLGLPYFLMGGSLLGAIRHQGFIPWDDDVDVGLLRADYDQLLAAAPTHLADSPYFLQTPTSDENYGLSYAKLLDRRTYIEEKRNVNNARKGIFIDIFPLDRIPQDTSAQQKQSTKFQLLNTRILLQLRYHLVDNPLRKLQGPLSSEQLTSVNALKAERQAVMTQYQAEITLPQVKNLSSQYAYAKEVFTVAELSDLTTVPFEHLQVQVPRNYATILTRMYGDYLALPPENQRTKKHLERVIMDNQVFTD,not soluble
17,MSKKIILITGASSGFGRLTAEALAGAGHRVYASMRDIVGRNASNVEAIAGFARDNDVDLRTLELDVQSQVSVDRAIDQIIGEDGRIDVLIHNAGHMVFGPAEAFTPEQFAELYDINVLSTQRVNRAALPHMRRQKHGLLIWISSSSSAGGTPPYLAPYFAAKAAMDAIAVQYARELSRWGIETSIIVPGAFTSGTNHFAHSGVPDDHARQAEYEAGPNAGLGEEIKKAFAAIVPPDADVSLVADAIVRVVGTASGKRPFRVHVDPAEDGADVGFSVLDRLRAEMLHRVGLSDLLKPRALA,soluble
